Results: patent US20180135012A1

T1: A2 domain of von Willebrand Factor (vWF-A2, recombinant), P04275
T1 chain: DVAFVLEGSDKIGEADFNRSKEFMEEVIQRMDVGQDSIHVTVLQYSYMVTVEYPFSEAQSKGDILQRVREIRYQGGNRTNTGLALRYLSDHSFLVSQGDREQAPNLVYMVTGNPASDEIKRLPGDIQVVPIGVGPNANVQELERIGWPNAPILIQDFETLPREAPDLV

B1: ADAMTS13 fused to the extracellular domain of GPA, expressed on K562 erythroleukemia cells (protein)
chain: AAGGILHLELLVAVGPDVFQAHQEDTERYVLTNLNIGAELLRDPSLGAQFRVHLVKMVILTEPEGAPNITANLTSSLLSVCGWSQTINPEDDTDPGHADLVLYITRFDLELPDGNRQVRGVTQLGGACSPTWSCLITEDTGFDLGVTIAHEIGHSFGLEHDGAPGSGCGPSGHVMASDGAAPRAGLAWSPCSRRQLLSLLSAGRARCVWDPPRPQPGSAGHPPDAQPGLYYSANEQCRVAFGPKAVACTFAREHLDMCQALSCHTDPLDQSSCSRLLVPLLDGTECGVEKWCSKGRCRSLVELTPIAAVHGRWSSWGPRSPCSRSCGGGVVTRRRQCNNPRPAFGGRACVGADLQAEMCNTQACEKTQLEFMSQQCARTDGQPLRSSPGGASFYHWGAAVPHSQGDALCRHMCRAIGESFIMKRGDSFLDGTRCMPSGPREDGTLSLCVSGSCRTFGCDGRMDSQQVWDRCQVCGGDNSTCSPRKGSFTAGRAREYVTFLTVTPNLTSVYIANHRPLFTHLAVRIGGRYVVAGKMSISPNTTYPSLLEDGRVEYRVALTEDRLPRLEEIRIWGPLQEDADIQVYRRYGEEYGNLTRPDITFTYFQPKPRQAWVWAAVRGPCSVSCGAGLRWVNYSCLDQARKELVETVQCQGSQQPPAWPEACVLEPCPPYWAVGDFGPCSASCGGGLRERPVRCVEAQGSLLKTLPPARCRAGAQQPAVALETCNPQPCPARWEVSEPSSCTSAGGAGLALENETCVPGADGLEAPVTEGPGSVDEKLPAPEPCVGMSCPPGWGHLDATSAGEKAPSPWGSIRTGAQAAHVWTPAAGSCSVSCGRGLMELRFLCMDSALRVPVQEELCGLASKPGSRREVCQAVPCPARWQYKLAACSVSCGRGVVRRILYCARAHGEDDGEEILLDTQCQGLPRPEPQEACSLEPCPPRWKVMSLGPCSASCGLGTARRSVACVQLDQGQDVEVDEAACAALVRPEASVPCLIADCTYRWHVGTWMECSVSCGDGIQRRRDTCLGPQAQAPVPADFCQHLPKPVTVRGCWAGPCVGQGTPSLVPHEEAAAPGRTTATPAGASLEWSQARGLLFSPAPQPRRLLPGPQENSVQSSACGRQHLEPTGTIDMRGPGQADCAVAIGRPLGEVVTLRVLESSLNCSAGDMLLLWGRLTWRKMCRKLLDMTFSSKTNTLVVRQRCGRPGGGVLLRYGSQLAPETFYRECDMQLFGPWGEIVSPSLSPATSNAGGCRLFINVAPHARIAIHALATNMGAGTEGANASYILIRDTHSLRTTAFHGQQVLYWESESSQAEMEFSEGFLKAQASLRGQYWTLQSWVPEMQDPQSWKGKEGTYPYDVPDYALSTTEVAMHTSTSSSVTKSYISSQTNDTHKRDTYAATPRAHEVSEISVRTVYPPEEETGERVQLAHHFSEPEITLIIFGVMAGVIGTILLISYGIRRLIKKSPSDVKPLPSPDTDVPLSSVEIENPETSDQ
B2: recombinant ADAMTS13 (protein)
chain: AAGGILHLELLVAVGPDVFQAHQEDTERYVLTNLNIGAELLRDPSLGAQFRVHLVKMVILTEPEGAPNITANLTSSLLSVCGWSQTINPEDDTDPGHADLVLYITRFDLELPDGNRQVRGVTQLGGACSPTWSCLITEDTGFDLGVTIAHEIGHSFGLEHDGAPGSGCGPSGHVMASDGAAPRAGLAWSPCSRRQLLSLLSAGRARCVWDPPRPQPGSAGHPPDAQPGLYYSANEQCRVAFGPKAVACTFAREHLDMCQALSCHTDPLDQSSCSRLLVPLLDGTECGVEKWCSKGRCRSLVELTPIAAVHGRWSSWGPRSPCSRSCGGGVVTRRRQCNNPRPAFGGRACVGADLQAEMCNTQACEKTQLEFMSQQCARTDGQPLRSSPGGASFYHWGAAVPHSQGDALCRHMCRAIGESFIMKRGDSFLDGTRCMPSGPREDGTLSLCVSGSCRTFGCDGRMDSQQVWDRCQVCGGDNSTCSPRKGSFTAGRAREYVTFLTVTPNLTSVYIANHRPLFTHLAVRIGGRYVVAGKMSISPNTTYPSLLEDGRVEYRVALTEDRLPRLEEIRIWGPLQEDADIQVYRRYGEEYGNLTRPDITFTYFQPKPRQAWVWAAVRGPCSVSCGAGLRWVNYSCLDQARKELVETVQCQGSQQPPAWPEACVLEPCPPYWAVGDFGPCSASCGGGLRERPVRCVEAQGSLLKTLPPARCRAGAQQPAVALETCNPQPCPARWEVSEPSSCTSAGGAGLALENETCVPGADGLEAPVTEGPGSVDEKLPAPEPCVGMSCPPGWGHLDATSAGEKAPSPWGSIRTGAQAAHVWTPAAGSCSVSCGRGLMELRFLCMDSALRVPVQEELCGLASKPGSRREVCQAVPCPARWQYKLAACSVSCGRGVVRRILYCARAHGEDDGEEILLDTQCQGLPRPEPQEACSLEPCPPRWKVMSLGPCSASCGLGTARRSVACVQLDQGQDVEVDEAACAALVRPEASVPCLIADCTYRWHVGTWMECSVSCGDGIQRRRDTCLGPQAQAPVPADFCQHLPKPVTVRGCWAGPCVGQGTPSLVPHEEAAAPGRTTATPAGASLEWSQARGLLFSPAPQPRRLLPGPQENSVQSSACGRQHLEPTGTIDMRGPGQADCAVAIGRPLGEVVTLRVLESSLNCSAGDMLLLWGRLTWRKMCRKLLDMTFSSKTNTLVVRQRCGRPGGGVLLRYGSQLAPETFYRECDMQLFGPWGEIVSPSLSPATSNAGGCRLFINVAPHARIAIHALATNMGAGTEGANASYILIRDTHSLRTTAFHGQQVLYWESESSQAEMEFSEGFLKAQASLRGQYWTLQSWVPEMQDPQSWKGKEGT

Biological target: T1, A2 domain of von Willebrand Factor …

Protein | enzymatic cleavage of vWF subdomain A2 detected by Western blot
B1 | the cell-expressed ADAMTS13 (lane 4) appears more active than the recombinant ADAMTS13 (lane 2), despite the fact that there is 6× less cell-expressed ADAMTS13 (13ng) than recombinant ADAMTS13 (75 ng) in the assay
B2 | the cell-expressed ADAMTS13 (lane 4) appears more active than the recombinant ADAMTS13 (lane 2), despite the fact that there is 6× less cell-expressed ADAMTS13 (13ng) than recombinant ADAMTS13 (75 ng) in the assay
